According to article PMC4328750 (EMBO Reports, 2014):

Target: purified recombinant endophilin A1-SH3 (ITC and NMR) (UniProt O35179 291-352)
Assay: ITC

purified recombinant endophilin A1-SH3 (ITC and NMR), sequence (O35179 291-352): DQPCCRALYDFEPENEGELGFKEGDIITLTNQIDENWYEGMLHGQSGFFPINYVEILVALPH

Kd: ~30 µM
stoichiometry N: 1
B1: purified recombinant intersectin 1-SH3B (ITC and NMR) (domain or fragment)
chain: LQAQALYPWRAKKDNHLNFNKNDVITVLEQQDMWWFGEVQGQKGWFPKSYVKLIS
